From patent US20040248211A1, “ICAM-related protein” (priority 1992, published 2004)

Tests used:
Assay type in all cases: cell-based, human
[1] = system: PBMC and CD4+ T-lymphocytes; assay: Costimulation of anti-CD3 induced lymphocyte proliferation; details: anti-CD3 G19 0.001 μg/well; antibody 10 μg/well; 3 days
Protocol: Because anti-ICAM-R antibodies with anti-CD3 antibodies costimulated early PBMC activation events, anti-ICAM-R antibodies were tested for the ability to costimulate lymphocyte proliferation induced by immobilized anti-CD3 antibody. In addition, to determine whether anti-ICAM-R antibodies costimulate T-lymphocytes in the absence of accessory cells, anti-ICAM-R antibodies were tested for their ability to costimulate proliferation of pure CD4^+ T-lymphocytes, isolated using negative'selection. To isolate CD4^+ cells PBMC were suspended in tissue culture medium, added to 75 ml tissue culture flasks (Corning) and incubated for 1 hour at 37° C., 5% CO2. Plastic nonadherent cells were then removed from the flask by gently rinsing once with PBS. The nonadherent cell fraction was suspended (10^7 cells/ml) in an antibody cocktail containing 1 μg/ml anti-CD8 antibody (Pharmingen, San Diego, Calif.), 1 μg/ml anti-CD19 (Becton Dickinson), 1 μg/ml anti-CD11b (Becton Dickinson) in 10% FBS-PBS (coating medium), and incubated for 1 hour at 4° C. Unbound antibody was removed by washing twice in coating medium. […] Lymphocyte proliferation was measured by ^3H-thymidine incorporation by the PMBC or CD4^+ cells. […]

PBL = assay: Detergent resistance (cytoskeleton association) assay, PBL
Protocol: Experiments were conducted using freshly prepared human PBL or the human T lymphoblastoid cell line CEM-CCRF (ATCC CCL119). Briefly, freshly drawn human blood from healthy volunteer donors was diluted 1:1 with PBS and layered onto Sigma HistoPaque density separation medium. The gradients were centrifuged for 30 minutes at 1500 rpm (600×g) and the mononuclear cell fraction at the interphase was collected and washed three times with PBS. The cell pellet was resuspended in complete RPMI-1640 medium (Gibco, supplemented with L-glutamine, penicillin/streptomycin, sodium pyruvate, 2-mercaptoethanol, and 10% FBS) and plated onto tissue culture-treated petri dishes for adherent cell depletion. Plates were incubated 1-2 hours at 37° C., 5% CO2 after which nonadherent PBL were harvested and washed twice with ice-cold PBS. Conjugation of monoclonal antibodies to fluorescein using fluorescein isothiocyanate (FITC) was performed according to published procedures [see, e.g., Goding, J. Immunol. Meth., 13: 215 (1976)] and, in brief, involves incubation of purified antibody with an excess of FITC (Sigma) in 0.1M bicarbonate buffer pH 8.1 for 90 minutes at 37° C. followed by exhaustive dialysis against PBS to remove unreacted FITC. […]

resting PBLs = assay: T cell receptor induced tyrosine phosphorylation after pretreatment
Protocol: Briefly, resting PBLs were isolated and treated with ICR-1.1 or isotype matched control antibody as described above in Section I. After the cells were removed from antibody, they were washed one time in PBS, resuspended in PBS to a concentration of 1×10^6 cells/ml, and either treated or not treated with antisera to the T cell receptor (G19-4) for 2 minutes at 37° C. The cells were then spun down and lysed in boiling 2×SDS-sample buffer, boiled a further 5 minutes and resolved on 10% SDS-PAGE. Proteins were transferred to nitrocellulose and blotted with the 4G10 anti-phosphotyrosine antibody as described. […] This is consistent with the result that CD69 upregulation in these cells is also normal (Section L above), since CD69 expression requires PLC-gamma stimulated PKC activity and PLC-gamma activation requires tyrosine phosphorylation.

B1: ICR-1.1: anti-ICAM-R monoclonal antibody, IgG2a, domain 1, ATCC HB 11053 (antibody, V domains shown)
VH: QVQLQQSGAELAKPGASVKMSCKASGYTFTVYWMHWVKQRPGQGLEWIGYINPNTDYTEYNQRFQDKATLTADKSSSTAYMQLSSLTSEDSAVYYCARWGGNSYGLDYWGQGTSVTVSS
VL: QIVLTQSPALMSASPGEKVTMTCSASSSVSYIYWYQQKPRSSPKPWIYLTSNLASGVPARFSGSGSGASYSLTISIMEAEDAATYYCQQWKSIPLTFGAGTKLELK
B1 was tested, and the “proliferative response to immobilized anti-CD3” value [1] was “increased the PBMC and purified CD4^+ cell response to anti-CD3”, the “greater increase in detergent resistance, crosslinked antibody” value (PBL) was “approximately 2 fold” and the “tyrosine phosphorylation in response to G19-4 after pretreatment” value (resting PBLs) was “there was an induction of tyrosine phosphorylation in response to G19-4 treatment”.
